Experimental data published in the RNAGym collection of RNA variant scans (doi:10.1073/pnas.2313332121).

B1: TPR t1 (parent)
chain: GACCAAUCUGCCCUCAGAGCUCGAGAACAUCUUCGGAUGCAGAGGAGGCAGGCUUCGGUGGCGCGAUAGCGCCAACGUCCUCAACCUCCAAUGCAUCCCACCACAUGAUGAUGCCUGAAGAGCCUUGGUUUUUUG

Variants of: B1
Test: polymerase ribozyme fitness, log enrichment relative to wild type (log ratio); higher = more active; in vitro selection for triplet polymerase activity
How it was run: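 Streptavidin-bead capture of gel-excised extended constructs, followed by RT-PCR, closed a single triplicate in vitro selection round. That round began by annealing PCR-built, transcribed mutant libraries of each subunit of a heterodimeric triplet polymerase ribozyme with a biotinylated primer, the partner subunit and triplets, then incubating them frozen at −7 °C. After Illumina sequencing of inputs and outputs, genotypes needed ≥10 input reads and ≥1 read per output. Fitness is the base-2 logarithm of genotype enrichment over wild-type enrichment, using inverse-variance-weighted replicate averages.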

Row | Variant | polymerase ribozyme fitness (log ratio)
1 | C56U G117C | -3.64
2 | G57U C73G | -0.228
3 | G57A C82A | -0.596
4 | C56U C72A G120A | -0.183
5 | G57A U81C G93C G120A | -1.39
6 | C56G C115U | -1.4
7 | C56G C72A G110U A111G | -2.87
8 | C56U U126A | -1.39
9 | C56U U126G | -1.91
10 | C56U G57U A90C G110U | -3.95
11 | C56G C79G C124U | -0.0923
12 | C56G C101U U130C | 0.475
13 | G57A G107A | -6.98
14 | G57C C89A A95G A111U A121U | -2.97
15 | C56U C85A C88A | -2.83
16 | G57U C72G C94U G122A | -3
17 | C56G G58U U59C C124A | 1.88
18 | C56U U116C | -0.494
19 | G57C U116A | -2.89
20 | C56G U59C | -1.57
21 | C56U G135U | -1.18

Row | Variant | polymerase ribozyme fitness (log ratio)
22 | C56G U87G | -0.352
23 | C56G U87A | -1.33
24 | C56G C70U C88U U106A | -2.44
25 | C56U C73U U109A | -4.36
26 | G57U A74U C79U | -0.181
27 | C56U G57U | -0.86
28 | C56U A68U C70U U92C C104U C124U | -7.15
29 | C56U C72U U116C G117U G120U | -3.95
30 | C56G C79A A83U A90C C114A | -7.42
31 | C56U G122U | -0.129
32 | C56G A74G | -1.5
33 | C56G U81G | -2.07
34 | C56U C70G C115A G122A | -4.59
35 | G57A C80U | -1.38
36 | C56G G77C G127C U129G | -0.438
37 | C56U A91C | -1.17
38 | G57C U92G G117A | -3.55
39 | C56G A90U U92G C97U | -2.65
40 | G57C C94A C97U A121U G122U | -1.21
41 | C56A U78C G93A C123U | 1.38
42 | G57U A68G | -3.27

Row | Variant | polymerase ribozyme fitness (log ratio)
43 | C56G G120U | -0.0956
44 | C56G G120A | 0.238
45 | C56U G63C C94U | -5.48
46 | C56G G61A | -2.31
47 | C56G G61U | -2.32
48 | C56U G65U C114U | -6.33
49 | G57C G60U C88A U106A | -0.528
50 | C56U G71A C72G G77C C82G A111U | -6.46
51 | C56U C79A | -0.918
52 | C56U G69A U78G A83C | -4.4
53 | G57C C82U | 0.151
54 | C56U A121G | 1.94
55 | C56U A121C | 1.68
56 | G57C G61A G110U C115A | -2.7
57 | G57A A84U | -0.813
58 | C56G U130C | -1.02
59 | G57A C88U U112G | -2.79
60 | C56U A95C C98U | -1.83
61 | G57U C82A C123U | 0.32
62 | C56G A95G A111U | -2.63
63 | G57C C104U | 0.227

Row | Variant | polymerase ribozyme fitness (log ratio)
64 | C56G G93A | -1.61
65 | C56G G93C | -1.86
66 | C56U G113U C123G | -2.01
67 | C56U U78C A111C G113U | -4.24
68 | C56U C101G A118C C124G | -2.41
69 | C56U C101A | -1.79
70 | C56U C101U | 0.177
71 | C56U C104G C115A | -4.93
72 | G57C G61C C88G G113U U116C A121U | -6.29
73 | C56U A83C | 1.56
74 | C56G G110C | -3.6
75 | C56G G65A | -4.66
76 | C56U U112A U134A | 2.39
77 | C56U C72G C88A | -3.53
78 | C56U C64U A74G | -3.32
79 | C56G G71U G120A G127A | -4.03
80 | G57A C124A | 0.954
81 | C56U C94U G120C A121U G127U | 0.202
82 | C56U C114A | -1.27
83 | C56U C114G | -2.54
